Experimental data from the supplement of paper PMC11246515.
± gives the standard deviation of the averaged measurements.

Assay: total protein half-life in vivo (active degradation + dilution); higher = more stable protein
[1] = E. coli NCM3722 delta-clpP delta-lon delta-hslV, growth: N-lim chemostat, doubling time 6 h
[2] = E. coli NCM3722 delta-hslV, growth: N-lim chemostat, doubling time 6 h
[3] = E. coli NCM3722 delta-lon, growth: N-lim chemostat, doubling time 6 h
[4] = E. coli NCM3722 delta-smpB, growth: N-lim chemostat, doubling time 6 h
[5] = wild type E. coli NCM3722, growth: C-lim chemostat, doubling time 6 h
[6] = wild type E. coli NCM3722, growth: C-lim chemostat, doubling time 12 h
[7] = wild type E. coli NCM3722, growth: N-lim chemostat, doubling time 6 h
[8] = wild type E. coli NCM3722, growth: N-lim chemostat, doubling time 12 h
[9] = wild type E. coli NCM3722, growth: P-lim chemostat, doubling time 6 h
[10] = E. coli NCM3722 delta-clpP, growth: N-lim chemostat, doubling time 6 h
[11] = wild type E. coli NCM3722, growth: P-lim chemostat, doubling time 12 h
[12] = wild type E. coli NCM3722, growth: C-lim chemostat, doubling time 3 h

Row | Sequence | total protein half-life in vivo [1] | total protein half-life in vivo [2] | total protein half-life in vivo [3] | total protein half-life in vivo [4] | total protein half-life in vivo [5] | total protein half-life in vivo [6] | total protein half-life in vivo [7] | total protein half-life in vivo [8] | total protein half-life in vivo [9] | total protein half-life in vivo [10] | total protein half-life in vivo [11] | total protein half-life in vivo [12]
1 | MFGKLSLDAVPFHEPIVMVTIAGIILGGLALVGLITYFGKWTYLWKEWLTSVDHKRLGIMYIIVAIVMLLRGFADAIMMRSQQALASAGEAGFLPPHHYDQIFTAHGVIMIFFVAMPFVIGLMNLVVPLQIGARDVAFPFLNNLSFWFTVVGVILVNVSLGVGEFAQTGWLAYPPLSGIEYSPGVGVDYWIWSLQLSGIGTTLTGINFFVTILKMRAPGMTMFKMPVFTWASLCANVLIIASFPILTVTVALLTLDRYLGTHFFTNDMGGNMMMYINLIWAWGHPEVYILILPVFGVFSEIAATFSRKRLFGYTSLVWATVCITVLSFIVWLHHFFTMGAGANVNAFFGITTMIIAIPTGVKIFNWLFTMYQGRIVFHSAMLWTIGFIVTFSVGGMTGVLLAVPGADFVLHNSLFLIAHFHNVIIGGVVFGCFAGMTYWWPKAFGFKLNETWGKRAFWFWIIGFFVAFMPLYALGFMGMTRRLSQQIDPQFHTMLMIAASGAVLIALGILCLVIQMYVSIRDRDQNRDLTGDPWGGRTLEWATSSPPPFYNFAVVPHVHERDAFWEMKEKGEAYKKPDHYEEIHMPKNSGAGIVIAAFSTIFGFAMIWHIWWLAIVGFAGMIITWIVKSFDEDVDYYVPVAEIEKLENQHFDEITKAGLKNGN [P0ABI8] | 6.54 ± 0.5 h | 6.89 ± 0.66 h | 6.02 ± 0.071 h | 6.54 ± 0.66 h | 5.86 ± 0.97 h | 14.5 ± 0.29 h | 5.84 ± 0.49 h | 11.9 ± 0.69 h | 6.04 ± 0.13 h | – | – | –
2 | MRVLLFLLLSLFMLPAFSADNLLRWHDAQHFTVQASTPLKAKRAWKLCALYPSLKDSYWLSLNYGMQEAARRYGVDLKVLEAGGYSQLATQQAQIDQCKQWGAEAILLGSSTTSFPDLQKQVASLPVIELVNAIDAPQVKSRVGVPWFQMGYQPGRYLVQWAHGKPLNVLLMPGPDNAGGSKEMVEGFRAAIAGSPVRIVDIALGDNDIEIQRNLLQEMLERHPEIDVVAGTAIAAEAAMGEGRNLKTPLTVVSFYLSHQVYRGLKRGRVIMAASDQMVWQGELAVEQAIRQLQGQSVSDNVSPPILVLTPKNADREHIRRSLSPGGFRPVYFYQHTSAAKK | 6.15 ± 0.33 h | 3.15 ± 0.62 h | 4.15 ± 1.5 h | 3.08 h | – | 4.04 h | 3.87 ± 1.8 h | 9.91 ± 3.2 h | 4.02 h | 5.43 ± 0.75 h | 6.77 ± 2.5 h | –
3 | MAEFETTFADLGLKAPILEALNDLGYEKPSPIQAECIPHLLNGRDVLGMAQTGSGKTAAFSLPLLQNLDPELKAPQILVLAPTRELAVQVAEAMTDFSKHMRGVNVVALYGGQRYDVQLRALRQGPQIVVGTPGRLLDHLKRGTLDLSKLSGLVLDEADEMLRMGFIEDVETIMAQIPEGHQTALFSATMPEAIRRITRRFMKEPQEVRIQSSVTTRPDISQSYWTVWGMRKNEALVRFLEAEDFDAAIIFVRTKNATLEVAEALERNGYNSAALNGDMNQALREQTLERLKDGRLDILIATDVAARGLDVERISLVVNYDIPMDSESYVHRIGRTGRAGRAGRALLFVENRERRLLRNIERTMKLTIPEVELPNAELLGKRRLEKFAAKVQQQLESSDLDQYRALLSKIQPTAEGEELDLETLAAALLKMAQGERTLIVPPDAPMRPKREFRDRDDRGPRDRNDRGPRGDREDRPRRERRDVGDMQLYRIEVGRDDGVEVRHIVGAIANEGDISSRYIGNIKLFASHSTIELPKGMPGEVLQHFTRTRILNKPMNMQLLGDAQPHTGGERRGGGRGFGGERREGGRNFSGERREGGRGDGRRFSGERREGRAPRRDDSTGRRRFGGDA [P0A9P6] | 5.66 ± 0.077 h | 0.567 ± 0.1 h | 4.78 ± 0.32 h | 0.849 ± 0.089 h | 1.34 ± 0.29 h | 1.19 ± 0.17 h | 2.26 ± 2 h | 0.902 ± 0.095 h | 0.635 ± 0.37 h | 0.972 ± 0.029 h | 0.864 ± 0.3 h | 1.4 ± 0.34 h
4 | MKTRTQQIEELQKEWTQPRWEGITRPYSAEDVVKLRGSVNPECTLAQLGAAKMWRLLHGESKKGYINSLGALTGGQALQQAKAGIEAVYLSGWQVAADANLAASMYPDQSLYPANSVPAVVERINNTFRRADQIQWSAGIEPGDPRYVDYFLPIVADAEAGFGGVLNAFELMKAMIEAGAAAVHFEDQLASVKKCGHMGGKVLVPTQEAIQKLVAARLAADVTGVPTLLVARTDADAADLITSDCDPYDSEFITGERTSEGFFRTHAGIEQAISRGLAYAPYADLVWCETSTPDLELARRFAQAIHAKYPGKLLAYNCSPSFNWQKNLDDKTIASFQQQLSDMGYKFQFITLAGIHSMWFNMFDLANAYAQGEGMKHYVEKVQQPEFAAAKDGYTFVSHQQEVGTGYFDKVTTIIQGGTSSVTALTGSTEESQF [P0A9G6] | 3.78 ± 0.38 h | 2.33 ± 0.14 h | 2.71 ± 0.22 h | 2.51 ± 0.07 h | 4.78 ± 0.25 h | 7.76 ± 0.96 h | 3.01 ± 0.6 h | 3.15 ± 0.29 h | 5.05 ± 0.28 h | 3.26 ± 0.34 h | 11.2 ± 3.2 h | 3.19 ± 0.085 h
